{
  "source": "patent US20200165613",
  "about": "“VIRUS LIKE PARTICLE” (The University of Leeds, published 2020)",
  "molecules": {"B1": {"name": "STNV-1 PS1-5 127-mer (ssRNA)", "RNA": "GAGUAAAGACAGGAAACUUUACUGACUAACAUGGCAAAACAACAGAACAACAGGCGAAAAUCCGCAACAAUGCGUGCAGUGAAGCGCAUGAUAAAUACACACUUGGAGCAUAAAAGGUUUGCACUGA"}, "B2": {"name": "Synthetic, stabilised PS1-5 (ssRNA)", "RNA": "GGGCUGCCCUCAAGGACCAGGGCAGAAAAGAGGAAAAGAAAAGUGACAGAACACUUAUAAGGAAAAAACGUACAAACGUUUUAAGGAAAAAAGGAAGCUGCAAUAGCGCAAGGAAUCCGAAAAUUCGGAAAGGAA"}, "B3": {"name": "All PS3 (ssRNA)", "RNA": "GGGCCCCGCAACAAUGCGGGGAAGGAAGGAAGGAAGAAAACGUACAAACGUUUUAAGGAACAACGCAACAAUGCGUUGAAGGAAGGAAGGAAGGGGCGUACAAACGCCCCAAGGAAUUUUGCAACAAUGCAAAAAAGGAA"}, "B4": {"name": "Stable PS1-5 (ssRNA)", "RNA": "GGGCUGCCCUCAAGGACCAGGGCAGAAAAGAGGAAAAGAAAAGUGACAGAACACUUAUAAGGAACCACACAAGUGGAAGGAAAAAAGGAAGCUGCAAUAGCGCAAGGAAUCCGAAAAUUCGGAAAGGAA"}, "B5": {"name": "Unstable PS1-5 (ssRNA)", "RNA": "GGGCUGCCCUCAAGGACCAGGGCAGAAAAGAGGAAAAGAAAAGUGACAGAACACUUAUAAGGAACCACACAAGUAUAAGGAAAAAAGGAAGCUGCAAUAGCGCAAGGAAUCCGAAAAUUCGGAAAGGAA"}},
  "key": {"[1]": {"molecular_target": "T1, STNV coat protein wild-type (Satellite tobacco necrosis virus 1) (UniProt P03606)", "T1 sequence": "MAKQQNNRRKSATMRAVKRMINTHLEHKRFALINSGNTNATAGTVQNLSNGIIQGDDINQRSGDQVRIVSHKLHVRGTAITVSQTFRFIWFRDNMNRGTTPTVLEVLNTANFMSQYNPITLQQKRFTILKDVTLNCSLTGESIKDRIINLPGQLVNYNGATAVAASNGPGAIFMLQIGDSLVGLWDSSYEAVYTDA", "conditions": "QELS after SEC; Rh 9.1 nm"}, "[2]": {"molecular_target": "T2, STNV coat protein wild-type (Satellite tobacco necrosis virus 1, UniProt P03606 P03606:1-196)", "T2 sequence": "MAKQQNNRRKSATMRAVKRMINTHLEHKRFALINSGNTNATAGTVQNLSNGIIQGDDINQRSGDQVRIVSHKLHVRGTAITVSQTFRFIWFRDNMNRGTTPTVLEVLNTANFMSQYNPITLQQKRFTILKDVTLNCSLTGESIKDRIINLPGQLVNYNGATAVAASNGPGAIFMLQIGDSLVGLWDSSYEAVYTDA", "experiment": "competition; unlabelled B3 displaces AF488-B3 at 100-fold excess", "conditions": "chain copies: trimeric capsomer / T=1 capsid; stem-loop"}, "[3]": {"molecular_target": "T2, STNV coat protein wild-type", "experiment": "smFCS; Rh collapse 20-30% then cooperative T=1 assembly", "conditions": "chain copies: trimeric capsomer / T=1 capsid; label: 5' Alexa Fluor 488; five stem-loops"}, "[4]": {"molecular_target": "T2, STNV coat protein wild-type", "experiment": "smFCS; best assembly substrate", "conditions": "chain copies: trimeric capsomer / T=1 capsid; label: 5' Alexa Fluor 488; five stem-loops"}, "[5]": {"molecular_target": "T2, STNV coat protein wild-type", "experiment": "competition; competes with B3; T=1 peak in svAUC", "conditions": "chain copies: trimeric capsomer / T=1 capsid; stem-loop"}, "[6]": {"molecular_target": "T2, STNV coat protein wild-type", "experiment": "svAUC; T=1 capsids with similar efficiency to PS3; 2 mM Ca2+", "conditions": "chain copies: trimeric capsomer / T=1 capsid; stem-loop"}, "[7]": {"molecular_target": "T2, STNV coat protein wild-type", "experiment": "smFCS; more efficient than wild-type 127-mer", "conditions": "chain copies: trimeric capsomer / T=1 capsid; label: 5' Alexa Fluor 488; five stem-loops"}, "[8]": {"molecular_target": "T2, STNV coat protein wild-type", "experiment": "competition; competes; forms T=1; text states low nanomolar affinity for AUUA", "conditions": "chain copies: trimeric capsomer / T=1 capsid; stem-loop"}, "[9]": {"molecular_target": "T2, STNV coat protein wild-type", "experiment": "smFCS; T=1 at lower CP than wild-type 127-mer", "conditions": "chain copies: trimeric capsomer / T=1 capsid; label: 5' Alexa Fluor 488; five stem-loops"}, "[10]": {"molecular_target": "T2, STNV coat protein wild-type", "experiment": "smFCS; T=1 but cooperativity lost", "conditions": "chain copies: trimeric capsomer / T=1 capsid; label: 5' Alexa Fluor 488"}},
  "data": [
    {"molecule": "STNV-1 genome", "values": [
      {"measurement": "activity (% relative VLP yield)", "setting": "[1]", "result": 80}
    ]},
    {"molecule": "ACAUGCAACAAUGCACAC (ssRNA)", "note": "[B3 short / PS3 ACAA]", "values": [
      {"measurement": "binding result", "setting": "[2]", "result": "binds"}
    ]},
    {"molecule": "B1", "values": [
      {"measurement": "binding result", "setting": "[3]", "result": "binds"}
    ]},
    {"molecule": "B2", "values": [
      {"measurement": "binding result", "setting": "[4]", "result": "binds"}
    ]},
    {"molecule": "ACAUGCAUUUAUGCACAC (ssRNA)", "note": "[B3 UUUA]", "values": [
      {"measurement": "binding result", "setting": "[5]", "result": "binds"}
    ]},
    {"molecule": "ACAUGCAAAAAUGCACAC (ssRNA)", "note": "[B3 AAAA]", "values": [
      {"measurement": "binding result", "setting": "[6]", "result": "binds"}
    ]},
    {"molecule": "ACAUGCAAUGAUGCACAC (ssRNA)", "note": "[B3 AUGA]", "values": [
      {"measurement": "binding result", "setting": "[6]", "result": "binds"}
    ]},
    {"molecule": "ACAUGCAAGGAUGCACAC (ssRNA)", "note": "[B3 AGGA]", "values": [
      {"measurement": "binding result", "setting": "[6]", "result": "binds"}
    ]},
    {"molecule": "ACAUGCAAGUAUGCACAC (ssRNA)", "note": "[B3 AGUA]", "values": [
      {"measurement": "binding result", "setting": "[6]", "result": "binds"}
    ]},
    {"molecule": "B3", "values": [
      {"measurement": "binding result", "setting": "[7]", "result": "binds"}
    ]},
    {"molecule": "ACAUGCAAUUAUGCACAC (ssRNA)", "note": "[B3 AUUA]", "values": [
      {"measurement": "binding result", "setting": "[8]", "result": "binds"}
    ]},
    {"molecule": "B4", "values": [
      {"measurement": "binding result", "setting": "[9]", "result": "binds"}
    ]},
    {"molecule": "B5", "values": [
      {"measurement": "binding result", "setting": "[10]", "result": "binds"}
    ]}
  ]
}
